Laboratory results: patent US20160264649A1

Key:
Test in all cases: cell-based or functional assay
HIV-1 ZM233 Env (HIV-1) = target: HIV-1 ZM233 Env (HIV-1)
HIV-1 TR0.11 Env (HIV-1) = target: HIV-1 TR0.11 Env (HIV-1)
[1] = target: HIV-1 REJ04541 Env (HIV-1)
HIV-1 Du172 Env (HIV-1) = target: HIV-1 Du172 Env (HIV-1)
HIV-1 DU422 Env (HIV-1) = target: HIV-1 DU422 Env (HIV-1)
[2] = target: HIV-1 JR-FL Env E168K (HIV-1)
[3] = target: MuLV envelope (control pseudovirus)
[4] = target: HIV-1 THRO.18 Env (HIV-1)
HIV-1 PVO.4 Env (HIV-1) = target: HIV-1 PVO.4 Env (HIV-1)
HIV-1 DU156 Env (HIV-1) = target: HIV-1 DU156 Env (HIV-1)
HIV-1 CAP45 Env (HIV-1) = target: HIV-1 CAP45 Env (HIV-1)
HIV-1 ZM249 Env (HIV-1) = target: HIV-1 ZM249 Env (HIV-1)
HIV-1 CAAN Env (HIV-1) = target: HIV-1 CAAN Env (HIV-1)
HIV-1 AC10 Env (HIV-1) = target: HIV-1 AC10 Env (HIV-1)
HIV-1 ZM214 Env (HIV-1) = target: HIV-1 ZM214 Env (HIV-1)
[5] = target: HIV-1 Env of isolate MGRM-F1-008 (subtype F) (HIV-1)
[6] = target: HIV-1 Env of isolate MGRM-D-029 (subtype D) (HIV-1)
[7] = target: HIV-1 Env of isolate 93UG077 (subtype A) (HIV-1)
[8] = target: HIV-1 Env of isolate QH0692.42 (subtype B) (HIV-1)
[9] = target: HIV-1 Env of isolate MGRM-F1-023 (subtype F) (HIV-1)
[10] = target: HIV-1 Env of isolate MGRM-Chronic-B-011 (subtype B) (HIV-1)
[11] = target: HIV-1 Env of isolate MGRM-D-018 (subtype D) (HIV-1)

Chain of 1443_C16 (PG16) (TCN-116) (antibody) (VH): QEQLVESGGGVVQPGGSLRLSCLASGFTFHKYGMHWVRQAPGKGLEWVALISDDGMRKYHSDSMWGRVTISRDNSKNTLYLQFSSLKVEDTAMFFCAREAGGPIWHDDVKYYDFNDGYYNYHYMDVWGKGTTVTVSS
Chain of 1443_C16 (PG16) (TCN-116) (antibody) (VL): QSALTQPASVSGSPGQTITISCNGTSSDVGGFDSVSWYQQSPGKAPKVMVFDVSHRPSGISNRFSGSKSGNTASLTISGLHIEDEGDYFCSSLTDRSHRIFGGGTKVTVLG

With 1443_C16 (PG16) (TCN-116) (antibody) as the substance, how does the IC50, TZM-bl pseudovirus neutralization (HIV-1 ZM233 Env (HIV-1)) read?
Its IC50, TZM-bl pseudovirus neutralization is under 0.01 µg/mL.

And the IC50, TZM-bl pseudovirus neutralization (HIV-1 TR0.11 Env (HIV-1))?
The IC50, TZM-bl pseudovirus neutralization was 3.61 µg/mL.

And the IC50, TZM-bl pseudovirus neutralization [1]?
The IC50, TZM-bl pseudovirus neutralization was under 0.01 µg/mL.

What about the IC50, TZM-bl pseudovirus neutralization (HIV-1 Du172 Env (HIV-1)) of the same substance?
The IC50, TZM-bl pseudovirus neutralization was under 0.01 µg/mL.

What about the IC50, TZM-bl pseudovirus neutralization (HIV-1 DU422 Env (HIV-1)) of the same substance?
The IC50, TZM-bl pseudovirus neutralization was 0.59 µg/mL.

And the IC50, TZM-bl pseudovirus neutralization [2]?
The IC50, TZM-bl pseudovirus neutralization was 0.006 µg/mL.

What about the IC50, TZM-bl pseudovirus neutralization [3] of the same substance?
Its IC50, TZM-bl pseudovirus neutralization is over 25 µg/mL.

What about the IC50, TZM-bl pseudovirus neutralization [4] of the same substance?
The IC50, TZM-bl pseudovirus neutralization was 2.19 µg/mL.

And the IC50, TZM-bl pseudovirus neutralization (HIV-1 PVO.4 Env (HIV-1))?
Its IC50, TZM-bl pseudovirus neutralization is 12.3 µg/mL.

What about the IC50, TZM-bl pseudovirus neutralization (HIV-1 DU156 Env (HIV-1)) of the same substance?
Its IC50, TZM-bl pseudovirus neutralization is under 0.01 µg/mL.

What about the IC50, TZM-bl pseudovirus neutralization (HIV-1 CAP45 Env (HIV-1)) of the same substance?
Its IC50, TZM-bl pseudovirus neutralization is under 0.01 µg/mL.

What about the IC50, TZM-bl pseudovirus neutralization (HIV-1 ZM249 Env (HIV-1)) of the same substance?
The IC50, TZM-bl pseudovirus neutralization was under 0.01 µg/mL.

And the IC50, TZM-bl pseudovirus neutralization (HIV-1 CAAN Env (HIV-1))?
The IC50, TZM-bl pseudovirus neutralization was 6.37 µg/mL.

And the IC50, TZM-bl pseudovirus neutralization (HIV-1 AC10 Env (HIV-1))?
The IC50, TZM-bl pseudovirus neutralization was under 0.01 µg/mL.

What about the IC50, TZM-bl pseudovirus neutralization (HIV-1 ZM214 Env (HIV-1)) of the same substance?
The IC50, TZM-bl pseudovirus neutralization was over 25 µg/mL.

PGV04 (antibody) was tested. Which IC50 (pseudovirus neutralization) [5] did it give?
Its IC50 (pseudovirus neutralization) is 1.03 µg/mL.

What about the IC50 (pseudovirus neutralization) [6] of the same substance?
Its IC50 (pseudovirus neutralization) is 1.56 µg/mL.

And the IC50 (pseudovirus neutralization) [7]?
The IC50 (pseudovirus neutralization) was 0.083 µg/mL.

And the IC50 [8]?
Its IC50 is 1.9 µg/mL.

What about the IC50 (pseudovirus neutralization) [9] of the same substance?
The IC50 (pseudovirus neutralization) was 0.171 µg/mL.

And the IC50 [10]?
Its IC50 is 0.497 µg/mL.

What about the IC50 (pseudovirus neutralization) [11] of the same substance?
Its IC50 (pseudovirus neutralization) is 17.5 µg/mL.

Which IC50 (pseudovirus neutralization) [5] does the source give for VRC01 (antibody) here?
The IC50 (pseudovirus neutralization) was 1.11 µg/mL.

And the IC50 (pseudovirus neutralization) [6]?
Its IC50 (pseudovirus neutralization) is 3.22 µg/mL.

And the IC50 (pseudovirus neutralization) [7]?
The IC50 (pseudovirus neutralization) was 0.097 µg/mL.

What about the IC50 [8] of the same substance?
The IC50 was 1.19 µg/mL.

And the IC50 (pseudovirus neutralization) [9]?
Its IC50 (pseudovirus neutralization) is 0.392 µg/mL.

What about the IC50 [10] of the same substance?
Its IC50 is 0.587 µg/mL.

What about the IC50 (pseudovirus neutralization) [11] of the same substance?
Its IC50 (pseudovirus neutralization) is over 50 µg/mL.
